Experimental data taken from the RNAGym collection of RNA variant scans (doi:10.7554/elife.80360).

B1: HDV Ribozyme (parent)
chain: GGCCGGCAUGGUCCCAGCCUCCUCGCUGGCGCCGGCUGGGCAACAUUCCGAGGGGACCGUCCCCUCGGUAAUGGCGAAUGGGACCCA

Variants of: B1
Test: self-cleavage, relative activity (ratio to wild type); higher = more cleavage; co-transcriptional

In order of rising self-cleavage:
1. GGCCGGCAUGGUCCCAGCCUCCUCGCUGGCGCCGGCUGGGCAACAUUCCGAGGGGACAGUCCCCUCGGUAAUGGGGAAUGGGACCCA  0.116
2. GGCCGGCAUGGUCCCAGCCUCCUCGCUGGCGCCGGCUGGGCAACAUUCCGAGGGGAUCGUCCCCUCGGUAAUGGCGAAUCGGACCCA  0.145
3. GGCCGGCAUGGUCCCAGCCUCCUCGCUGGCGCCGGCUGGGCAACAUUCCGAGGGGAUCGUCCCCUCGGUAAUGGUGAAUGGGACCCA  0.188
4. GGCCGGCAUGGUCCCAGCCUCCUCGCUGGCGCCGGCUGGGCAACAUUCCGAGGGGAUCGUCCCCUCGGUAAUGGCGAAUGGCACCCA  0.208
5. GGCCGGCAUGGUCCCAGCCUCCUCGCUGGCGCCGGCUGGGCAACAUUCCGAGGGGAUCGUCCCCUCGGUAAUGGCGAACGGGACCCA  0.237
6. GGCCGGCAUGGUCCCAGCCUCCUCGCUGGCGCCGGCUGGGCAACAUUCCGAGGGGAGCGUCCCCUCGGUAAUGGCGAAUUGGACCCA  0.25
7. GGCCGGCAUGGUCCCAGCCUCCUCGCUGGCGCCGGCUGGGCAACAUUCCGAGGGGAUCGUCCCCUCGGUAAUGGCGAAUGGAACCCA  0.269
8. GGCCGGCAUGGUCCCAGCCUCCUCGCUGGCGCCGGCUGGGCAACAUUCCGAGGGGAUCGUCCCCUCGGUAAUGGCGAAUGUGACCCA  0.353
9. GGCCGGCAUGGUCCCAGCCUCCUCGCUGGCGCCGGCUGGGCAACAUUCCGAGGGGACGGUCCCCUCGGUAAUGGCGCAUGGGACCCA  0.361
10. GGCCGGCAUGGUCCCAGCCUCCUCGCUGGCGCCGGCUGGGCAACAUUCCGAGGGGAGCGUCCCCUCGGUAAUGGCGAAUGUGACCCA  0.388
11. GGCCGGCAUGGUCCCAGCCUCCUCGCUGGCGCCGGCUGGGCAACAUUCCGAGGGGACGGUCCCCUCGGUAAUGGCGUAUGGGACCCA  0.388
12. GGCCGGCAUGGUCCCAGCCUCCUCGCUGGCGCCGGCUGGGCAACAUUCCGAGGGGACAGUCCCCUCGGUAAUGGCGAUUGGGACCCA  0.424
13. GGCCGGCAUGGUCCCAGCCUCCUCGCUGGCGCCGGCUGGGCAACAUUCCGAGGGGAGCGUCCCCUCGGUAAUUGCGAAUGGGACCCA  0.464
14. GGCCGGCAUGGUCCCAGCCUCCUCGCUGGCGCCGGCUGGGCAACAUUCCGAGGGGAUCGUCCCCUCGGUAAUGGCGAAUGGGUCCCA  0.475
15. GGCCGGCAUGGUCCCAGCCUCCUCGCUGGCGCCGGCUGGGCAACAUUCCGAGGGGACAGUCCCCUCGGUAAUGGCGAAUGAGACCCA  0.514
16. GGCCGGCAUGGUCCCAGCCUCCUCGCUGGCGCCGGCUGGGCAACAUUCCGAGGGGACAGUCCCCUCGGUAAUGGCGAAUAGGACCCA  0.544
17. GGCCGGCAUGGUCCCAGCCUCCUCGCUGGCGCCGGCUGGGCAACAUUCCGAGGGGACAGUCCCCUCGGUAAUGGCGAAUGGGUCCCA  0.554
18. GGCCGGCAUGGUCCCAGCCUCCUCGCUGGCGCCGGCUGGGCAACAUUCCGAGGGGACAGUCCCCUCGGUAAUGGCGAACGGGACCCA  0.554
19. GGCCGGCAUGGUCCCAGCCUCCUCGCUGGCGCCGGCUGGGCAACAUUCCGAGGGGAGCGUCCCCUCGGUAAUGGCGAACGGGACCCA  0.598
20. GGCCGGCAUGGUCCCAGCCUCCUCGCUGGCGCCGGCUGGGCAACAUUCCGAGGGGACGGUCCCCUCGGUCAUGGCGAAUGGGACCCA  0.712
21. GGCCGGCAUGGUCCCAGCCUCCUCGCUGGCGCCGGCUGGGCAACAUUCCGAGGGGAGCGUCCCCUCGGUAAGGGCGAAUGGGACCCA  0.733
22. GGCCGGCAUGGUCCCAGCCUCCUCGCUGGCGCCGGCUGGGCAACAUUCCGAGGGGACAGUCCCCUCGGUAAUAGCGAAUGGGACCCA  0.787
23. GGCCGGCAUGGUCCCAGCCUCCUCGCUGGCGCCGGCUGGGCAACAUUCCGAGGGGAGCGUCCCCUCGGUAAUGGCGAAAGGGACCCA  0.802
24. GGCCGGCAUGGUCCCAGCCUCCUCGCUGGCGCCGGCUGGGCAACAUUCCGAGGGGACAGUCCCCUCGGUGAUGGCGAAUGGGACCCA  0.807
25. GGCCGGCAUGGUCCCAGCCUCCUCGCUGGCGCCGGCUGGGCAACAUUCCGAGGGGAUCGUCCCCUCGGCAAUGGCGAAUGGGACCCA  0.831
26. GGCCGGCAUGGUCCCAGCCUCCUCGCUGGCGCCGGCUGGGCAACAUUCCGAGGGGAUCGUUCCCUCGGUAAUGGCGAAUGGGACCCA  0.843
27. GGCCGGCAUGGUCCCAGCCUCCUCGCUGGCGCCGGCUGGGCAACAUUCCGAGGGGACGGUUCCCUCGGUAAUGGCGAAUGGGACCCA  0.851
28. GGCCGGCAUGGUCCCAGCCUCCUCGCUGGCGCCGGCUGGGCAACAUUCCGAGGGGAUCGUCCCCUAGGUAAUGGCGAAUGGGACCCA  0.878
29. GGCCGGCAUGGUCCCAGCCUCCUCGCUGGCGCCGGCUGGGCAACAUUCCGAGGGGACGGUGCCCUCGGUAAUGGCGAAUGGGACCCA  0.88
30. GGCCGGCAUGGUCCCAGCCUCCUCGCUGGCGCCGGCUGGGCAACAUUCCGAGGGGACAGUCCCCUCCGUAAUGGCGAAUGGGACCCA  0.886
31. GGCCGGCAUGGUCCCAGCCUCCUCGCUGGCGCCGGCUGGGCAACAUUCCGAGGGGACAUUCCCCUCGGUAAUGGCGAAUGGGACCCA  0.89
32. GGCCGGCAUGGUCCCAGCCUCCUCGCUGGCGCCGGCUGGGCAACAUUCCGAGGGGAUCGUCCCCACGGUAAUGGCGAAUGGGACCCA  0.917
33. GGCCGGCAUGGUCCCAGCCUCCUCGCUGGCGCCGGCUGGGCAACAUUCCGAGGGGAUCGUCCCCGCGGUAAUGGCGAAUGGGACCCA  0.919
34. GGCCGGCAUGGUCCCAGCCUCCUCGCUGGCGCCGGCUGGGCAACAUUCCGAGGGGACGGUCCCCUCGGUAAUGGCGAAUGGGACCCC  0.919
35. GGCCGGCAUGGUCCCAGCCUCCUCGCUGGCGCCGGCUGGGCAACAUUCCGAGGGGAUCGUCACCUCGGUAAUGGCGAAUGGGACCCA  0.941
36. GGCCGGCAUGGUCCCAGCCUCCUCGCUGGCGCCGGCUGGGCAACAUUCCGAGGGGACAGUCCCCUCUGUAAUGGCGAAUGGGACCCA  0.946
37. GGCCGGCAUGGUCCCAGCCUCCUCGCUGGCGCCGGCUGGGCAACAUUCCGAGGGGACAGUCCCCUCGAUAAUGGCGAAUGGGACCCA  0.95
38. GGCCGGCAUGGUCCCAGCCUCCUCGCUGGCGCCGGCUGGGCAACAUUCCGAGGGGAUCGUCCUCUCGGUAAUGGCGAAUGGGACCCA  0.958
39. GGCCGGCAUGGUCCCAGCCUCCUCGCUGGCGCCGGCUGGGCAACAUUCCGAGGGGAUCGUCCCCUCUGUAAUGGCGAAUGGGACCCA  0.974
40. GGCCGGCAUGGUCCCAGCCUCCUCGCUGGCGCCGGCUGGGCAACAUUCCGAGGGGAUCGUCCCCUCGGUAAUGGCGAAUGGGACCCG  0.979
41. GGCCGGCAUGGUCCCAGCCUCCUCGCUGGCGCCGGCUGGGCAACAUUCCGAGGGGAGCGACCCCUCGGUAAUGGCGAAUGGGACCCA  0.987
42. GGCCGGCAUGGUCCCAGCCUCCUCGCUGGCGCCGGCUGGGCAACAUUCCGAGGGGAUCGUCCCCUCGGUAAUGGCGAAUGGGACCCA  0.993
43. GGCCGGCAUGGUCCCAGCCUCCUCGCUGGCGCCGGCUGGGCAACAUUCCGAGGGGACAGUCCCCUCGGUAAUGGCGAAUGGGACCCU  1
44. GGCCGGCAUGGUCCCAGCCUCCUCGCUGGCGCCGGCUGGGCAACAUUCCGAGGGGACAGUCCCCUCGGUAAUGGCAAAUGGGACCCA  1.02
45. GGCCGGCAUGGUCCCAGCCUCCUCGCUGGCGCCGGCUGGGCAACAUUCCGAGGGGACAGUCCUCUCGGUAAUGGCGAAUGGGACCCA  1.02
46. GGCCGGCAUGGUCCCAGCCUCCUCGCUGGCGCCGGCUGGGCAACAUUCCGAGGGGACAGUCCCCUCGGUCAUGGCGAAUGGGACCCA  1.04
47. GGCCGGCAUGGUCCCAGCCUCCUCGCUGGCGCCGGCUGGGCAACAUUCCGAGGGGACGGUCCUCUCGGUAAUGGCGAAUGGGACCCA  1.04
48. GGCCGGCAUGGUCCCAGCCUCCUCGCUGGCGCCGGCUGGGCAACAUUCCGAGGGGAUCGUCCCCUCGGUUAUGGCGAAUGGGACCCA  1.05
49. GGCCGGCAUGGUCCCAGCCUCCUCGCUGGCGCCGGCUGGGCAACAUUCCGAGGGGACAGUCCCCGCGGUAAUGGCGAAUGGGACCCA  1.05
50. GGCCGGCAUGGUCCCAGCCUCCUCGCUGGCGCCGGCUGGGCAACAUUCCGAGGGGAGCGCCCCCUCGGUAAUGGCGAAUGGGACCCA  1.07
51. GGCCGGCAUGGUCCCAGCCUCCUCGCUGGCGCCGGCUGGGCAACAUUCCGAGGGGAUCGUCCCCUGGGUAAUGGCGAAUGGGACCCA  1.07
52. GGCCGGCAUGGUCCCAGCCUCCUCGCUGGCGCCGGCUGGGCAACAUUCCGAGGGGACGGUCCCUUCGGUAAUGGCGAAUGGGACCCA  1.08
53. GGCCGGCAUGGUCCCAGCCUCCUCGCUGGCGCCGGCUGGGCAACAUUCCGAGGGGACAGUCCCCUCGGUAAUGGCGAAUGGGACCCC  1.09
54. GGCCGGCAUGGUCCCAGCCUCCUCGCUGGCGCCGGCUGGGCAACAUUCCGAGGGGACAGACCCCUCGGUAAUGGCGAAUGGGACCCA  1.09
55. GGCCGGCAUGGUCCCAGCCUCCUCGCUGGCGCCGGCUGGGCAACAUUCCGAGGGGACAGUCCCCUCGGUAAUGGCGAAUGGGACCUA  1.1
56. GGCCGGCAUGGUCCCAGCCUCCUCGCUGGCGCCGGCUGGGCAACAUUCCGAGGGGACAGUCCCCUCGGUAAUGGCGAAUGGGACCCG  1.11
57. GGCCGGCAUGGUCCCAGCCUCCUCGCUGGCGCCGGCUGGGCAACAUUCCGAGGGGAUCGUCCGCUCGGUAAUGGCGAAUGGGACCCA  1.12
58. GGCCGGCAUGGUCCCAGCCUCCUCGCUGGCGCCGGCUGGGCAACAUUCCGAGGGGAUCGUCCCCUCGGAAAUGGCGAAUGGGACCCA  1.15
59. GGCCGGCAUGGUCCCAGCCUCCUCGCUGGCGCCGGCUGGGCAACAUUCCGAGGGGACGGUCCCCUAGGUAAUGGCGAAUGGGACCCA  1.15
60. GGCCGGCAUGGUCCCAGCCUCCUCGCUGGCGCCGGCUGGGCAACAUUCCGAGGGGACAGUCCCCUCGGCAAUGGCGAAUGGGACCCA  1.17
61. GGCCGGCAUGGUCCCAGCCUCCUCGCUGGCGCCGGCUGGGCAACAUUCCGAGGGGAUCGUCCCCUCGGUAAUGGCGAAUGGGACCCC  1.17
62. GGCCGGCAUGGUCCCAGCCUCCUCGCUGGCGCCGGCUGGGCAACAUUCCGAGGGGAUCUUCCCCUCGGUAAUGGCGAAUGGGACCCA  1.2
63. GGCCGGCAUGGUCCCAGCCUCCUCGCUGGCGCCGGCUGGGCAACAUUCCGAGGGGACAGUCCCCUGGGUAAUGGCGAAUGGGACCCA  1.25
64. GGCCGGCAUGGUCCCAGCCUCCUCGCUGGCGCCGGCUGGGCAACAUUCCGAGGGGAUUGUCCCCUCGGUAAUGGCGAAUGGGACCCA  1.3
